# Source: patent US11407811B2, “Fusion protein, preparation method therefor and use thereof” (JIANGSU RONGTAI BIOTECH CO., LTD., priority 2017, dated 2022)
# What was measured:
# lung cancer cell A549 = experiment: MTT assay, proliferation of lung cancer cell A549; assay type: cell-based
# Method: (§1) The MTT assay was used to detect the inhibitory effect of the integrin blocker fusion protein obtained in Example 1 on the proliferation of various tumor cells, including melanoma cell B16F10, gastric cancer cell MGC-803, lung cancer cell A549, liver cancer cell Hep-G2, breast cancer cell MDA-MB-231, colon cancer cell HCT-116, human glioma U87, and cervical cancer cell Hela.
# (§2) The tumor cells were cultured in a 5% CO2 incubator at 37° C. to a density of 90% or more, and collected by trypsinization. The cells were resuspended in the culture liquid and counted under a microscope. The cell concentration was adjusted to 3.0×10^4 cells/mL. The cell suspension was inoculated into a 96-well plate at 100 μL per well and cultured overnight in a 5% CO2 incubator at 37° C. […] After the cells were fully adhered, each dilution was added to a 96-well plate at 100 μL per well, respectively. […] 20 μL of 5 mg/mL MTT was added to each well of a 96-well plate, and incubation was continued for 4 hours. The medium was aspirated and 100 μL of DMSO per well were added to dissolve. The absorbance was measured at 570 nm with a microplate reader with a reference wavelength of 630 nm, and the proliferation inhibition (PI) was calculated. The formula is as follows: […]
# (§3) where Ntest is the OD value of the test group and Ncontrol is the OD value of the blank control group.
# (§4) The test was repeated 5 times independently. The results obtained from the test were calculated as mean±SD, and statistical t-test was performed. P<0.05 was considered as a significant difference, and P<0.01 was considered as an extremely significant difference.
# [1] = tested on: cervical cancer cell Hela; experiment: MTT assay, proliferation of cervical cancer cell Hela; assay type: cell-based
# Method: as §1, §2, §3, §4
# [2] = tested on: xylene-induced ear swelling in mice; experiment: Xylene-induced ear swelling in mice; assay type: in vivo; conditions: for Swelling degree / PI: injection; for Swelling degree: 2 h after xylene, mice; for PI: ear swelling vs control
# Method: 80 Kunming mice were divided into 8 groups with 10 mice for each group and numbered. A physiological saline group was used as a blank control group, an aspirin group (200 mg/kg) was used as a positive control group, and fusion protein I, protein II, protein III, protein IV and protein V at high, medium and low doses (128, 32, 8 mg/kg) were used as experimental groups. Mice were administered once by injection, while EDSM needed to be administered twice a day for 5 consecutive days. The blank control group was given an equal volume of physiological saline. After the fifth day, 0.05 mL of xylene was applied to both sides of the right ears of the mice to induce inflammation, and the left ears were not applied and were normal ears. After 2 h, the mice were sacrificed by dislocation, and the ears were cut along the auricle. Ear pieces were taken with a puncher and weighed, and the swelling degree and swelling rate were calculated. Swelling degree=right ear piece weight-left ear piece weight, swelling rate=(swelling degree/left ear piece weight)×100%.
# [3] = tested on: corneal neovascularization in mice; experiment: Corneal neovascularization induced by alkali burn in BALB/c mice (MVD, CD31); assay type: in vivo
# Source text: 15 healthy male BALB/c mice with weight of 20-25 g were examined under a slit lamp microscope for the anterior segment of both eyes and the appendage to exclude ocular lesions. The eyes were given 0.3% loxacin eye drops 1 day before the preparation of alkali burn model, twice a day. After the mice were anesthetized by intraperitoneal injection of 1.8% Avertin, single-layer filter paper with a diameter of 2 mm was clamped with tweezers, and immersed in a 1 mol/L sodium hydroxide solution to reach a saturated state, and the excess liquid was removed. […]
# 15 mice were randomly divided into […], with 5 rats in each group. […] On day 14 after alkali burn, the neovascularization of the corneal in each group was photographed and recorded under the slit lamp microscope for photographing anterior segment of the eye. […] The blood was washed with physiological saline, and the eyeballs were fixed in 4% paraformaldehyde for 1.5 h, dehydrated in PBS containing 30% sucrose overnight, embedded in an OCT tissue freezing medium, stored in a refrigerator at −80° C., subjected to cryosection at […] and detected by immunohistochemistry for CD31 expression.
# Microvessel density (MVD) is an indicator for evaluating angiogenesis. […] The number of new blood vessels in the entire section was counted under a 10×20 microscope. […]
molecule,measurement,setting,value
Protein II: IgG2-Fc linked to antiangiogenesis polypeptide EDSM-Y via a flexible linker; SEQ ID NO: 17 (protein) ERKCCVECPPCPAPPVAGPSVFLFPPKPKDTLMISRTPEVTCVVVDVSHEDPEVQFNWYVDGVEVHNAKTKPREEQFNSTFRVVSVLTVVHQDWLNGKEYKCKVSNKGLPAPIEKTISKTKGQPREPQVYTLPPSREEMTKNQVSLTCLVKGFYPSDISVEWESNGQPENNYKTTPPMLDSDGSFFLYSKLTVDKSRWQQGNVFSCSVMHEALHNHYTQKSLSLSPGKGGGGSGGGGSGGGGSFQPVLHLVALNSPLSGGMRGIRGADFQCFQQARAVGLAGTFRAGGGGRGD,A570 nm/A630 nm,lung cancer cell A549; dose 1 μg/mL,0.8885 ± 0.0374
same,PI (%),lung cancer cell A549; dose 1 μg/mL,8.28%
same,A570 nm/A630 nm,lung cancer cell A549; dose 2 μg/mL,0.7933 ± 0.0253
same,PI (%),lung cancer cell A549; dose 2 μg/mL,18.11%
same,A570 nm/A630 nm,lung cancer cell A549; dose 4 μg/mL,0.7005 ± 0.0396
same,PI (%),lung cancer cell A549; dose 4 μg/mL,27.69%
same,A570 nm/A630 nm,lung cancer cell A549; dose 8 μg/mL,0.6325 ± 0.0215
same,PI (%),lung cancer cell A549; dose 8 μg/mL,34.71%
same,A570 nm/A630 nm,lung cancer cell A549; dose 16 μg/mL,0.5923 ± 0.0192
same,PI (%),lung cancer cell A549; dose 16 μg/mL,38.86%
same,PI (%),"lung cancer cell A549; dose 16 μg/mL, listed as protein II",about 40%
same,A570 nm/A630 nm,lung cancer cell A549; dose 32 μg/mL,0.5006 ± 0.0347
same,PI (%),lung cancer cell A549; dose 32 μg/mL,48.32%
same,A570 nm/A630 nm,lung cancer cell A549; dose 64 μg/mL,0.4106 ± 0.0286
same,PI (%),lung cancer cell A549; dose 64 μg/mL,57.61%
same,A570 nm/A630 nm,lung cancer cell A549; dose 128 μg/mL,0.2008 ± 0.0147
same,PI (%),lung cancer cell A549; dose 128 μg/mL,79.27%
same,A570 nm/A630 nm,lung cancer cell A549; dose 256 μg/mL,0.1165 ± 0.0159
same,PI (%),lung cancer cell A549; dose 256 μg/mL,87.97%
same,A570 nm/A630 nm,[1]; dose 1 μg/mL,0.7798 ± 0.0386
same,PI (%),[1]; dose 1 μg/mL,2.43%
same,A570 nm/A630 nm,[1]; dose 2 μg/mL,0.7412 ± 0.0407
same,PI (%),[1]; dose 2 μg/mL,7.26%
same,A570 nm/A630 nm,[1]; dose 4 μg/mL,0.6946 ± 0.0272
same,PI (%),[1]; dose 4 μg/mL,13.09%
same,A570 nm/A630 nm,[1]; dose 8 μg/mL,0.6312 ± 0.0313
same,PI (%),[1]; dose 8 μg/mL,21.02%
same,A570 nm/A630 nm,[1]; dose 16 μg/mL,0.5418 ± 0.0286
same,PI (%),[1]; dose 16 μg/mL,32.21%
same,A570 nm/A630 nm,[1]; dose 32 μg/mL,0.4788 ± 0.0262
same,PI (%),[1]; dose 32 μg/mL,40.09%
same,A570 nm/A630 nm,[1]; dose 64 μg/mL,0.4023 ± 0.0314
same,PI (%),[1]; dose 64 μg/mL,49.66%
same,PI (%),"[1]; dose 64 μg/mL, listed as protein II",about 45%
same,A570 nm/A630 nm,[1]; dose 128 μg/mL,0.2878 ± 0.0275
same,PI (%),[1]; dose 128 μg/mL,63.99%
same,A570 nm/A630 nm,[1]; dose 256 μg/mL,0.1748 ± 0.0303
same,PI (%),[1]; dose 256 μg/mL,78.13%
same,Swelling degree,[2]; 8 mg/kg,6.21 ± 0.23 mg
same,PI,[2]; 8 mg/kg,6.62%
same,Swelling degree,[2]; 32 mg/kg,5.18 ± 0.89 mg
same,PI,[2]; 32 mg/kg,22.11%
same,Swelling degree,[2]; 128 mg/kg,3.87 ± 0.45 mg
same,PI,[2]; 128 mg/kg,41.80%
same,inhibition of xylene-induced ear swelling,[2]; high doses,could significantly inhibit xylene-induced ear swelling
same,number of CD31-positive new blood vessels,[3]; compared with the control group,significantly reduced
same,MVD,"[3]; dose 64 μg, intravitreal injection, day 14 after alkali burn",24.64 ± 4.24
